The source of these data is patent US20090208538A1.

The target in experiment [1] is HLA-A*0201 (human). The experiment in a line: iTopia binding.
Experiment [2] has as its target HLA-A*0201 (human). The experiment in a line: iTopia net score.
In experiment [3] the target is HLA-A*0201 (human). Put plainly: iTopia affinity.

cdr2 246-254 RALELEAV (peptide) had a binding vs positive control with HLA-A*0201 (human) [1] greater than 30%. Moreover, the iScore with HLA-A*0201 (human) [2] was found to be 0.352. Further, the ED50 in the experiment with HLA-A*0201 (human) [3] came to 1000 nM.
